The text below walks through data of US20250186562A1 (University of California, published 2025).

No end group written: not given here. fluorescein = fluorescein attached to the C-terminus

The target of test [1] is T1, Purified GST (glutathione S-transferase) (UniProt P08515 1-218 = GST).
T1 construct: Control protein in the FP assay; also called GST alone
Description: fluorescence polarization, GST titrated into 9 nM tracer. The source says: The FP assay uses a tetrapeptide with a sequence arginine-isoleucine-phenylalanine-serine (RIFS) with fluorescein attached to the C-terminus as tracer that was previously shown to bind to the Ubr-boxes of Ubr1 and Ubr2 with similar binding affinity. Assays were developed in 384-well plates, which were read on a Clariostar Reader. Signal-to-background ratio (S/B) was optimized by varying concentrations of GST-Ubr-box and tracer concentrations. GST-fusion proteins were used due to its larger size than Ubr-box alone to increase the FP effect. […] The optimized condition includes receptor concentration [GST-UBR1]=2 μM, tracer concentration [tracer]=9 nM, and the highest concentration of unlabeled peptidomimetic compound competitors at 200 μM with 3× serial dilutions.
On the technique in general: Fluorescence polarisation rises when a labelled molecule tumbles more slowly, as on binding a larger partner.

The target of test [2] is T2, GST-UBR1 fusion protein (GST-Ubr-box of Ubr1) (human).
T2 construct: GST fusion used as such in the FP assay
T2 sequence (chain, as listed by the source limits assumed): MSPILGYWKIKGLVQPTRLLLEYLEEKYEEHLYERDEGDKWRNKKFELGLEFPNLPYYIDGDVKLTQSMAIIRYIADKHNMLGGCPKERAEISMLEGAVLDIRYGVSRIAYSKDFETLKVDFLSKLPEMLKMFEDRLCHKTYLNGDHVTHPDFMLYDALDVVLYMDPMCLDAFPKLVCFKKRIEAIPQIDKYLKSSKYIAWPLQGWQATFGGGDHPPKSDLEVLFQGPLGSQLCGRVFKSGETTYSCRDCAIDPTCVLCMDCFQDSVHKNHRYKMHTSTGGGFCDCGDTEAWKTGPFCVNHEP
Description: fluorescence polarization, GST-Ubr-box titrated into 9 nM tracer.

In test [3] the target is T3, GST-UBR2 fusion protein (GST-Ubr-box of Ubr2) (human).
T3 construct: GST fusion used as such in the FP assay
T3 sequence (chain, as listed by the source limits assumed): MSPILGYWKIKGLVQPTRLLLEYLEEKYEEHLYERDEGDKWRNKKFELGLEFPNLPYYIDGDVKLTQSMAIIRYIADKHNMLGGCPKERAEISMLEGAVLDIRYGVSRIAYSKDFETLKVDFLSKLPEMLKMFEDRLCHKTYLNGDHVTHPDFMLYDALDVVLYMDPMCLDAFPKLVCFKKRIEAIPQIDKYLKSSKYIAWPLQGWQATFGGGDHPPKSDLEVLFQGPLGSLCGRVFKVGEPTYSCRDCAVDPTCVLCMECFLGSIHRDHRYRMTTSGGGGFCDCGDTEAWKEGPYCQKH
Described as above.

The next test addresses T4, GST-Ubr-box of Ubr5 (UniProt O95071 1177-1245).
T4 construct: domain: Ubr-box; not shown: glutathione S-transferase (GST) tag
T4 sequence (looked up): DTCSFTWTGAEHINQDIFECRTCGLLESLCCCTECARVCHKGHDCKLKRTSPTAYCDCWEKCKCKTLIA
The description is as above.

The target in a further test is T5, GST-Ubr-box of Ubr4 (UniProt Q5T4S7 1656-1729).
T5 construct: domain: Ubr-box; not shown: glutathione S-transferase (GST) tag
T5 sequence (Q5T4S7 1656-1729): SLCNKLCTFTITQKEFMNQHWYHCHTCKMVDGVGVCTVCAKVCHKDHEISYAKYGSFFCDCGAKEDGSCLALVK
The test is described as above.

T1 sequence (P08515 whole entry): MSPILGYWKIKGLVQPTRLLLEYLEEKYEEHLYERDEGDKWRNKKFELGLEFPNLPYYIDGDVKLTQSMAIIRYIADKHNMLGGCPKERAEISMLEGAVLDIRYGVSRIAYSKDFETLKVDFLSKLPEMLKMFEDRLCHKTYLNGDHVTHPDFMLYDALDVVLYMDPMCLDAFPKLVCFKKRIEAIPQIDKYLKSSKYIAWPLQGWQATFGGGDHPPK

B1: tetrapeptide arginine-isoleucine-phenylalanine-serine (RIFS) with fluorescein attached to the C-terminus (peptide)
peptide: RIFS-fluorescein
notes: FP tracer, used at 9 nM; also called tracer
With B1, the binding result in test [1] is “no binding”; in test [2] it was “binds”; in test [3], “binds”; in the test with GST-Ubr-box of Ubr5, “no binding”; in the test with GST-Ubr-box of Ubr4, “no binding”.
